Data: the supplement of paper PMC10567573

B1: NR2F2 (parent)
chain: VAHVESLQEKSQCALEEYVRSQYP

Variants of: B1
Assay: protein stability index of a GFP-peptide fusion (GPS, HEK-293T) (PSI 1-6); higher = more stable
Details: c terminus: a fixed tail appended
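Note: lentivirally expressed fusions sorted by FACS into six bins by GFP to DsRed ratio, PSI derived from sequencing read proportions per bin multiplied by bin number.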

Row | Variant | protein stability index
1 | VAHVESYQEKSQCALEEYVRSQYP [L7Y] | 3.45
2 | VAHVESLQEKSQCALEEYVRSQPP [Y23P] | 4.15
3 | VAHVESLQEKSQCALEEYVRSQMP [Y23M] | 3.46
4 | VAHVESLQEKSQCALEEYVRSQEP [Y23E] | 4.71
5 | VAHVESLQEKSQCALEEYVRSQIP [Y23I] | 3.9
6 | VAHVESLQEKSQCALEEYVRSQGP [Y23G] | 4.14
7 | VAHVESLQEKSQCALEEYVRSQSP [Y23S] | 4.36
8 | VAHVESLQEKSQCALEEYVRSQWP [Y23W] | 2.7
9 | VAHVESLQEKSQMALEEYVRSQYP [C13M] | 3.98
10 | VAHVESLQEKSQIALEEYVRSQYP [C13I] | 3.45
11 | VAHVESLQEKSQTALEEYVRSQYP [C13T] | 4.28
12 | VAHVESLQEKSQHALEEYVRSQYP [C13H] | 4.4
13 | VAHVESLQEKSQGALEEYVRSQYP [C13G] | 4
14 | VAHVESLQEKSQWALEEYVRSQYP [C13W] | 3.54
15 | VAHVESLQEKSQLALEEYVRSQYP [C13L] | 3.92
16 | VAHSESLQEKSQCALEEYVRSQYP [V4S] | 4.11
17 | VAHHESLQEKSQCALEEYVRSQYP [V4H] | 4.06
18 | VAHKESLQEKSQCALEEYVRSQYP [V4K] | 3.79
19 | VAHLESLQEKSQCALEEYVRSQYP [V4L] | 3.08
20 | VAHMESLQEKSQCALEEYVRSQYP [V4M] | 3.24
21 | VAHQESLQEKSQCALEEYVRSQYP [V4Q] | 4.03
22 | VAHYESLQEKSQCALEEYVRSQYP [V4Y] | 2.59
23 | VAHNESLQEKSQCALEEYVRSQYP [V4N] | 4.12
24 | VAHVESLQETSQCALEEYVRSQYP [K10T] | 3.92

Row | Variant | protein stability index
25 | VAHVESLQEQSQCALEEYVRSQYP [K10Q] | 3.83
26 | VAHVESLQEGSQCALEEYVRSQYP [K10G] | 3.81
27 | VAHVESLQECSQCALEEYVRSQYP [K10C] | 2.54
28 | VAHVESLQEASQCALEEYVRSQYP [K10A] | 3.45
29 | VAHVESLQEMSQCALEEYVRSQYP [K10M] | 2.97
30 | VAHVESLQEFSQCALEEYVRSQYP [K10F] | 2.08
31 | VAHVESLQERSQCALEEYVRSQYP [K10R] | 4.09
32 | VAHVESLQEHSQCALEEYVRSQYP [K10H] | 3.7
33 | VAHVEGLQEKSQCALEEYVRSQYP [S6G] | 3.24
34 | VAHVELLQEKSQCALEEYVRSQYP [S6L] | 3.22
35 | VAHVEFLQEKSQCALEEYVRSQYP [S6F] | 2.71
36 | VAHVEELQEKSQCALEEYVRSQYP [S6E] | 4.33
37 | VAHVEILQEKSQCALEEYVRSQYP [S6I] | 3.07
38 | VAHVEHLQEKSQCALEEYVRSQYP [S6H] | 3.26
39 | VAHVESLQEKSQCALEEYVRSSYP [Q22S] | 3.4
40 | VAHVESLQEKSQCALEEYVRSTYP [Q22T] | 3.27
41 | VAHVESLQEKSQCALEEYVRSAYP [Q22A] | 3.63
42 | VAHVESLQEKSQCALEEYVRSVYP [Q22V] | 3.5
43 | VAHVESLQEKSQCALEEYVRSGYP [Q22G] | 3.82
44 | VAHVESLQEKSQCALEEYVRSYYP [Q22Y] | 3.34
45 | VAHVESLQEKSQCALEEYVRSNYP [Q22N] | 3.54
46 | VAHVESLQEKSQCALEEYVRSCYP [Q22C] | 3.19
47 | VAWVESLQEKSQCALEEYVRSQYP [H3W] | 2.26
48 | VACVESLQEKSQCALEEYVRSQYP [H3C] | 3.42

Row | Variant | protein stability index
49 | VAGVESLQEKSQCALEEYVRSQYP [H3G] | 3.75
50 | VAIVESLQEKSQCALEEYVRSQYP [H3I] | 2.55
51 | VATVESLQEKSQCALEEYVRSQYP [H3T] | 3.86
52 | VAFVESLQEKSQCALEEYVRSQYP [H3F] | 2.63
53 | VARVESLQEKSQCALEEYVRSQYP [H3R] | 3.45
54 | VAKVESLQEKSQCALEEYVRSQYP [H3K] | 3.43
55 | VAYVESLQEKSQCALEEYVRSQYP [H3Y] | 2.77
56 | VAQVESLQEKSQCALEEYVRSQYP [H3Q] | 3.81
57 | VANVESLQEKSQCALEEYVRSQYP [H3N] | 3.77
58 | VAHVESLQEKSACALEEYVRSQYP [Q12A] | 3.33
59 | VAHVESLQEKSTCALEEYVRSQYP [Q12T] | 2.88
60 | VAHVESLQEKSECALEEYVRSQYP [Q12E] | 4.6
61 | VAHVESLQEKSMCALEEYVRSQYP [Q12M] | 2.99
62 | VAHVESLQEKSGCALEEYVRSQYP [Q12G] | 3.7
63 | VAHVESLQEKSLCALEEYVRSQYP [Q12L] | 2.68
64 | VAHVESLQEKSSCALEEYVRSQYP [Q12S] | 2.77
65 | VAHVESLQEKSPCALEEYVRSQYP [Q12P] | 3.12
66 | VAHVESLQEKSYCALEEYVRSQYP [Q12Y] | 2.55
67 | VAHVESLIEKSQCALEEYVRSQYP [Q8I] | 2.83
68 | VAHVESLEEKSQCALEEYVRSQYP [Q8E] | 3.99
69 | VAHVESLPEKSQCALEEYVRSQYP [Q8P] | 3.45
70 | VAHVESLWEKSQCALEEYVRSQYP [Q8W] | 2.27
71 | VAHVESLTEKSQCALEEYVRSQYP [Q8T] | 3.53
72 | VAHVESLMEKSQCALEEYVRSQYP [Q8M] | 2.98

Row | Variant | protein stability index
73 | VAHVESLLEKSQCALEEYVRSQYP [Q8L] | 2.89
74 | VAHVESLQEKSQCALEEAVRSQYP [Y18A] | 3.97
75 | VAHVESLQEKSQCALEENVRSQYP [Y18N] | 3.91
76 | VAHVESLQEKSQCALEEGVRSQYP [Y18G] | 4.33
77 | VAHVESLQEKSQCALEESVRSQYP [Y18S] | 4.25
78 | VAHVESLQEKSQCALEEMVRSQYP [Y18M] | 3.93
79 | VAHVESLQEKSQCALEAYVRSQYP [E17A] | 2.12
80 | VAHVESLQEKSQCALEYYVRSQYP [E17Y] | 2.11
81 | VAHVESLQEKSQCALERYVRSQYP [E17R] | 3.62
82 | VAHVESLQEKSQCALEKYVRSQYP [E17K] | 3.81
83 | VAHVESLQEKSQCALEIYVRSQYP [E17I] | 2.3
84 | VAHVESLQEKSQCALEMYVRSQYP [E17M] | 2.58
85 | VAHVESLQEKSQCALEQYVRSQYP [E17Q] | 3.27
86 | VAHVESLQEKSQCALEGYVRSQYP [E17G] | 3.45
87 | VAHVESLQEKSQCALESYVRSQYP [E17S] | 3.36
88 | VAHVESLQEKSQCALEFYVRSQYP [E17F] | 2.34
89 | VAHVESLQEKSQCALFEYVRSQYP [E16F] | 2.35
90 | VAHVESLQEKSQCALMEYVRSQYP [E16M] | 2.89
91 | VAHVESLQEKSQCALKEYVRSQYP [E16K] | 3.7
92 | VAHVESLQEKSQCALQEYVRSQYP [E16Q] | 3.68
93 | VAHVESLQEKSQCALYEYVRSQYP [E16Y] | 2.11
94 | VAHVESLQEKSQCALCEYVRSQYP [E16C] | 3.63
